# Assay results from paper PMC4579555, “The Cryo-EM structure of the CorA channel from Methanocaldococcus jannaschii in low magnesium conditions” (Biochimica et Biophysica Acta, 2015).
# Molecular target: the molecule itself
# Assay: self-rotation function of X-ray crystallographic data; crystals grown at low pH (0.1 M sodium citrate pH 3.5, 50 mM magnesium sulphate, 50 mM cobalt chloride, 0.1 M NaCl, 13% PEG 4000, 0.9% beta-octylmaltoside); data to 9.0 A, spacegroup P2(1); structure not phased; POLARRFN self-rotation function, data to 12 A
protein,measurement,value
"Methanocaldococcus jannaschii CorA channel (natural protein, CorA magnesium channel of Methanocaldococcus jannaschii (MjCorA); holds the N-terminal, conical and trans-membrane domains; also called MjCorA; source: final buffer 200 mM NaCl, 20 mM Tris/HCl pH8, 0.04% DDM) MITVIAIAKDGSIVEPKLDEISFEDYRLIWIDCYDPKDEELYKLSKKIGISVSDLQIGLDEQEIPRVEEDEDFYLIIYKAPLFEEDITTTSLGIYIKNNLLLTIHSDKIKAIGRLHKLISTKKPRIVFERGIGFLLYHILNEITRSYSRILMNLEDELEELEDKLLAGYDREVMEKILGLRKTLVYFHKSLIANRDVLVLLKRKYLPITTKEDRENFEDLYYDTLQLIDMSATYREVLTSMMDITLSLENIKMNQIMKILTMVTTIFAVPMWITGIYGMNFSYLPLANNPQGFWLVMALMVVIIMIFVYIFRRSGWI",stoichiometry N,5
